Test results published in IntAct's records for PubMed 32101751.

B1: Ubiquitin carboxyl-terminal hydrolase 15 (Homo sapiens), Q9Y4E8 (parent)
chain: MAEGGAADLDTQRSDIATLLKTSLRKGDTWYLVDSRWFKQWKKYVGFDSWDKYQMGDQNVYPGPIDNSGLLKDGDAQSLKEHLIDELDYILLPTEGWNKLVSWYTLMEGQEPIARKVVEQGMFVKHCKVEVYLTELKLCENGNMNNVVTRRFSKADTIDTIEKEIRKIFSIPDEKETRLWNKYMSNTFEPLNKPDSTIQDAGLYQGQVLVIEQKNEDGTWPRGPSTPKSPGASNFSTLPKISPSSLSNNYNNMNNRNVKNSNYCLPSYTAYKNYDYSEPGRNNEQPGLCGLSNLGNTCFMNSAIQCLSNTPPLTEYFLNDKYQEELNFDNPLGMRGEIAKSYAELIKQMWSGKFSYVTPRAFKTQVGRFAPQFSGYQQQDCQELLAFLLDGLHEDLNRIRKKPYIQLKDADGRPDKVVAEEAWENHLKRNDSIIVDIFHGLFKSTLVCPECAKISVTFDPFCYLTLPLPMKKERTLEVYLVRMDPLTKPMQYKVVVPKIGNILDLCTALSALSGIPADKMIVTDIYNHRFHRIFAMDENLSSIMERDDIYVFEININRTEDTEHVIIPVCLREKFRHSSYTHHTGSSLFGQPFLMAVPRNNTEDKLYNLLLLRMCRYVKISTETEETEGSLHCCKDQNINGNGPNGIHEEGSPSEMETDEPDDESSQDQELPSENENSQSEDSVGGDNDSENGLCTEDTCKGQLTGHKKRLFTFQFNNLGNTDINYIKDDTRHIRFDDRQLRLDERSFLALDWDPDLKKRYFDENAAEDFEKHESVEYKPPKKPFVKLKDCIELFTTKEKLGAEDPWYCPNCKEHQQATKKLDLWSLPPVLVVHLKRFSYSRYMRDKLDTLVDFPINDLDMSEFLINPNAGPCRYNLIAVSNHYGGMGGGHYTAFAKNKDDGKWYYFDDSSVSTASEDQIVSKAAYVLFYQRQDTFSGTGFFPLDRETKGASAATGIPLESDEDSNDNDNDIENENCMHTN
partner: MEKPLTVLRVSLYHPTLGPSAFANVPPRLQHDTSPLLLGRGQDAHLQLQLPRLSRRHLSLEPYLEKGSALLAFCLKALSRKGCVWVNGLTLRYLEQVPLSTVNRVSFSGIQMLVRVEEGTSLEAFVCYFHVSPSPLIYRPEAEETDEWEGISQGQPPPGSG

Variants of: B1
Conditions: with tifab_human TIFAB

effect of a mutation on the interaction	Variant
decreasing interaction strength	C298A
